US7745417B2, “Nucleosides or nucleotides having novel unnatural bases and use thereof” (RIKEN, priority 2002, dated 2010)
Like-named read-outs stand apart in the source and are kept apart here.

How the values were obtained:
Raf-1 GST-RBD = target: T1, Raf-1 GST-RBD (Homo sapiens, UniProt P04049); experiment: Gel shift assay of binding to GST-RBD; conditions: 5% non-denaturing polyacrylamide gel
T1 construct: human Raf-1 RBD (amino acid residues 51-131); GST (N); made in house; host or cells: E. coli
Protocol: The product (XL) obtained by crosslinking reaction an equal concentration (0.1 μM) mixture of 9A(5Iy87) and Raf-1 RBD was purified from a gel and analyzed for binding between XL and GSTRBD by gel shift assay. As a control of RNA 9A dimer, RNA 9A molecules were also linked in tandem to newly prepare RNA 9A×2 (200 nucleotides in total length), followed by gel shift assay. RNA 9A×2 is an RNA molecule of 200 nucleotides in total length that has two essential regions of RNA 9A (residues 1-80) in its molecule. It was prepared by transcription reaction using T7 RNA polymerase (Epicentre) and subcloned into vector pCR®II-TOPO (Invitrogen).
Each RNA whose 5′-terminus was ^32P-labeled (0.8 pmol) was warmed in 20 μl Buffer A at 75° C. for 3 minutes and then allowed to stand at room temperature for 10 minutes or longer to form the secondary structure of RNA. […] Each aliquot was supplemented with 5 μl Raf-1 GST-RBD solution (containing, in addition to RBD, 160 μg/ml BSA, 1 mM DTT and 10% glycerol in Buffer A), incubated at 37° C. for 30 minutes, and then analyzed by electrophoresis on a 5% non-denaturing polyacrylamide gel (acrylamide:bisacrylamide=39:1). […]

T7 RNA polymerase = T7 RNA polymerase (Escherichia phage T7, UniProt P00573); conditions: for misincorporation: 5IyTP +; for 5Iyp (number of nucleotides in transcription product): transcribed with 0.25 mM 5IyTP (+), theoretical number in parentheses
T7 RNA polymerase, sequence (P00573 whole entry): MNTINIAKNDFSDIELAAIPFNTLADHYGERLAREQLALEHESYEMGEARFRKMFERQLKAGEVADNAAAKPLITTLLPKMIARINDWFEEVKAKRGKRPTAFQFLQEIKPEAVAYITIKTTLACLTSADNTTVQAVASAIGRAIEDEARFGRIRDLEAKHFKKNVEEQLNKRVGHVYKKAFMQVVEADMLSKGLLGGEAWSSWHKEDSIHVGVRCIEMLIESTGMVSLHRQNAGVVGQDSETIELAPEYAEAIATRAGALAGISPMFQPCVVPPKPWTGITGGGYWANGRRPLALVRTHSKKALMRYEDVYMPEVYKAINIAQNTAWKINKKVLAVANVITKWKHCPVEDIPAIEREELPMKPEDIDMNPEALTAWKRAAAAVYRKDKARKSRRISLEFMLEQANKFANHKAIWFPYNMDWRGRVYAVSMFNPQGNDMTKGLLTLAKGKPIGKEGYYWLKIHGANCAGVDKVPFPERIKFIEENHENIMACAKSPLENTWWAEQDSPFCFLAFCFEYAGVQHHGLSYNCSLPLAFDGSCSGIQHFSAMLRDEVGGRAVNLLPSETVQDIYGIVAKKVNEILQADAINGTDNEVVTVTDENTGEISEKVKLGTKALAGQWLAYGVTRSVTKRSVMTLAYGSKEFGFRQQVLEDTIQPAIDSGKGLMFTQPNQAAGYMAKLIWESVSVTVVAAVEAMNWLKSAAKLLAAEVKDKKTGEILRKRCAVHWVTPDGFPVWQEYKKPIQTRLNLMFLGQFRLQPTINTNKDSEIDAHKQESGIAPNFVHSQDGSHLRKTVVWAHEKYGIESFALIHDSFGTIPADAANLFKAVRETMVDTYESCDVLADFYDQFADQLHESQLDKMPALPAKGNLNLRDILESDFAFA
Protocol: The reaction composition of T7 transcription may be the same as described in Ohtsuki et al., 2001. Details are as follows: 40 mM Tris-HCl (pH 8.0), 5 mM DTT, 24 mM MgCl2, 2 mM spermidine, 0.01% TritonX-100, 10 mM GMP, 1 mM NTPs, 0-0.25 mM 5IyTP, 0.2 μl/μl template DNA, and 2.5 U/μl T7 RNA polymerase (TaKaRa). After enzymatic reaction at 37° C. for 6 hours, each reaction product was purified by electrophoresis on an 8% polyacrylamide-7M urea gel.
When T7 transcription reaction is performed in the presence of [α-^32P]ATP or [α-^32P]GTP, a nucleoside 3′-phosphate (Np) 5′-terminal to A or G is labeled with ^32P. Each gel-purified RNA was completely digested into Np by RNase T2 (Sigma). If 5Iy is introduced at residue 84 or 92, the nucleoside 3′-phosphate of 5Iy (5IyTp) is labeled with ^32P via [α-^32P]GTP, while if 5Iy is introduced at residue 87, 5IyTp is labeled via [α-^32P]ATP (FIG. 5, FIG. 6-b). For base composition analysis of 5Iy-containing RNAs, each of the completely digested products was separated by 2D-TLC and determined for each nucleotide content.
More specifically, to completely digest RNA, 0.75 μl RNase T2 solution (5 units/μl; 100 mM NaOAc pH 4.5, 10% glycerol) was added to 4.25 μl aqueous solution containing the labeled RNA and a 0.25 OD E. coli-derived tRNA mixture (Sigma), followed by overnight enzymatic reaction at 37° C. A part of the reaction solution was spotted onto a 10 cm×10 cm TLC plate (Funacell SF; Funakoshi Co., Ltd., Japan) and developed in two dimensions. Developing solutions for the first and second dimensions are isobutyric acid/ammonia/water (66:1:33 by volume) and 2-propanol/hydrochloric acid/water (70:15:15 by volume), respectively. The developed spots were detected and quantified using a bioimaging analyzer (BAS2500, Fuji Photo Film Co., Ltd., Japan).
Each value was calculated from the following equation. The theoretical numbers of nucleotides are in parentheses.

[1] = Filter binding % (filter binding method, Table 2); conditions: triplicate average, standard deviation in parentheses
Protocol: (§1) The binding efficiency to Raf-1 RBD was measured for each RNA by a filter binding method (Raf-1 RBD/RNA=300:5 nM). Standard deviations are in parentheses. ^a RNA 9A transcribed from s-free template DNA in the presence of 0.4 mM 5IUTP. ^b RNA 9A transcribed from s-free template DNA in the presence of 0.25 mM 5IyTP.

Raf-1 RBD = target: T2, Raf-1 RBD (Homo sapiens, UniProt P04049); experiment: Binding efficiency to Raf-1 RBD by filter binding method; conditions: Raf-1 RBD/RNA=300:5 nM; triplicate average, standard deviation in parentheses
T2 construct: human Raf-1 RBD (amino acid residues 51-131); GST (N); made in house; host or cells: E. coli
Protocol: In this example, to examine changes in binding activity to Raf-1 RBD, each RNA site-selectively introduced with 5Iy was measured for binding efficiency by a filter binding method (Table 2). […] This means that the inventive method for site-selective introduction of 5Iy is advantageous.
as §1
Each RNA whose 5′-terminus was ^32P -labeled was warmed in Buffer A at 75° C. for 3 minutes and then allowed to stand at room temperature for 10 minutes or longer to form the secondary structure of RNA. On the other hand, to prepare Raf-1 RBD, human Raf-1 RBD (amino acid residues 51-131) was expressed as a GST (glutathione transferase)-fusion protein in E. coli cells and purified from the supernatant of crushed cells by column chromatography. Rat RGL RBD (amino acid residues 632-734) [Koyama et al., 1996] and human B-Raf RBD (amino acid residues 149-226) were also expressed as GST-fusion proteins in E. coli cells and purified in the same manner.

[2] = target: B-Raf RBD/Ras interaction (Homo sapiens, UniProt P15056)
B-Raf RBD/Ras interaction, sequence (P15056 149-226): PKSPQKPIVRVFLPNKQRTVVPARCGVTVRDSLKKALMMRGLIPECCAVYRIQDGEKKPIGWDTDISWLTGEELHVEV

[3] = system: Ras-induced Raf-1 activation; experiment: Ras-induced Raf-1 activation in a cell-free system; type: biochemical; conditions: membrane fraction of Sf9 cells expressing Ras and Raf-1, cytoplasmic fraction of HEK293 cells
[4] = target: T3, Raf-1 RBD/Ras interaction (Homo sapiens, UniProt P04049); experiment: Inhibition of Raf-1 RBD/Ras interaction; type: biochemical; conditions: compared with aptamer from N60 pool
T3 construct: GST (N); made in house; host or cells: E. coli
Description: In this reference example, with the aim of designing a novel RNA molecule selectively regulating Ras/Raf-1 interaction in cellular signal transduction, RNA aptamers specifically binding to Raf-1 RBD were isolated by in vitro selection techniques. An RNA aptamer obtained from a pool containing random sequences of 60 nucleotides (N60) inhibited Raf-1 RBD/Ras interaction. […] In response to this, the selection technique was partially modified and used for selection on a pool containing newly designed RNA random sequences of 45 nucleotides (N45). The RT-PCR products were each subcloned into TA cloning vector pCR®II-TOPO using a TOPO TA Cloning Kit Dual (Invitrogen), and nucleotide sequences were determined for individual clones using a dRhodamine Terminator Cycle Sequencing Ready Reaction Kit (Applied Biosystems).

B1: RNA 9A: anti-(Raf-1) RNA aptamer binding to Raf-1 RBD, 100 bases, SEQ ID NO: 1 (nucleic acid)
chain: GGGAGUGGAGGAAUUCAUCGAGGCAUAUGUCGACUCCGUCUUCCUUCAAACCAGUUAUAAAUUGGUUUUAGCAUAUGCCUUAGCGACAGCAAGCUUCUGC
modifications: chemistry not given here
- complex formation with GST-RBD (gel shift pattern) (Raf-1 GST-RBD): 1:1 complex
- misincorporation (T7 RNA polymerase; [α-32P]ATP label): 0.45%
- 5Iyp (number of nucleotides in transcription product) (T7 RNA polymerase; [α-32P]ATP label): 0.10(0)
- misincorporation (T7 RNA polymerase; [α-32P]GTP label): 0.41%
- 5Iyp (number of nucleotides in transcription product) (T7 RNA polymerase; [α-32P]GTP label): 0.09(0)
- Filter binding % [1]: 0.2 (0.1) %
- Raf-1 RBD binding % (Raf-1 RBD): 25 (5) %
- inhibition of B-Raf RBD/Ras interaction [2]: did not inhibit
- inhibition of Ras-induced Raf-1 activation [3]: strongly inhibited
- inhibitory capacity against Raf-1 RBD/Ras interaction [4]: higher inhibitory capacity
